Source: article PMC3631714 (Chembiochem : a European journal of chemical biology, 2012)

B1: Sam domain of the EphA2 receptor (EphA2-Sam) (domain or fragment, human, UniProt P29317 901-976, looked up)
chain: SEGVPFRTVSEWLESIKMQQYTEHFMAAGYTAIEKVVQMTNDDIKRIGVRLPGHQKRIAYSLLGLKDQVNTVGIPI
B2: Arap3-Sam wild-type (domain or fragment, human, UniProt Q8WWN8 1-80, looked up)
chain: MAAPQDLDIAVWLATVHLEQYADTFRRHGLATAGAARGLGHEELKQLGISATGHRKRILRLLQTGTEEGSLDPKSDSAME
B3: first Sam domain of Odin (Odin-Sam1) (domain or fragment, human, UniProt Q92625 691-770, looked up)
chain: ISGLRTLEQSVGEWLESIGLQQYESKLLLNGFDDVHFLGSNVMEEQDLRDIGISDPQHRRKLLQAARSLPKVKALGYDGN

Legend:
[1] = target: B3; test: NMR titration
[2] = target: B3; test: ITC
[3] = target: B2; test: SPR

Question: Does B1 bind [1]?
Answer: Result: binds

Question: How did the Kd [2] turn out when B2 was run?
Answer: Its Kd is 370 ± 80 nM.

Question: B3 was tested. Which Kd [3] did it give?
Answer: The Kd was 2900 ± 400 nM.
